Results on 1 substance are retold here after PMC4228062.

This assay deals with recombinant galectin-7 R74S (human). As to the kind of experiment: native gel or EMSA; recombinant gal-7 (wild type or R74S) on a native gel, detected by immunoblot; monomeric and dimeric forms. For orientation: In EMSA bound probe runs differently from free probe, usually more slowly.

For orientation: stoichiometry N means the number of molecules, sites or subunits per partner or assembly. Take “recombinant galectin-7 R74S (natural protein)”: the stoichiometry N was 2.
